Blank lines part the entries; values can stand above or below the binder they belong to.
Legend:
[1] = biological target: T1, DLL3 on the surface of DLL3-positive cell lines SHP77 and NCI-H82 (UniProt Q9NYJ7 27-618, limits assumed); test: flow cytometry on SHP77 cells
T1 construct: whole, on cells; The cell line of each number is named under assay
T1 sequence (looked up): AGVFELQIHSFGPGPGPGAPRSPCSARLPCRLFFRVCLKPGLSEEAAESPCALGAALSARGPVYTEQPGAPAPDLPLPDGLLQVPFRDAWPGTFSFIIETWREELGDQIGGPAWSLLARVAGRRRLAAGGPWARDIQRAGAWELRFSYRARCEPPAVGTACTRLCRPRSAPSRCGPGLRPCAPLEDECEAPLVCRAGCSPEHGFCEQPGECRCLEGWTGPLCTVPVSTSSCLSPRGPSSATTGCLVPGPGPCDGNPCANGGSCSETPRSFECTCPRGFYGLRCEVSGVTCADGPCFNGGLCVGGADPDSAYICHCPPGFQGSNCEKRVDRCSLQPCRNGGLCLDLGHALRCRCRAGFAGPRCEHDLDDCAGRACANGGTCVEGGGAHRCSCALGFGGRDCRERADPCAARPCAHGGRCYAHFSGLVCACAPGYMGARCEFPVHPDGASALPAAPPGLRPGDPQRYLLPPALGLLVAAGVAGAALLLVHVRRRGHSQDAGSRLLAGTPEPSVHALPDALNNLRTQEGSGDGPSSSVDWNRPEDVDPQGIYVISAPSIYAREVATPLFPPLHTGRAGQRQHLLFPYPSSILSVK

[2] = biological target: T2, human DLL3 protein (human, UniProt Q9NYJ7 27-492, limits assumed); test: BLI, scFv-Fc against human DLL3 protein
T2 construct: Soluble human DLL3 protein used in BLI; also called Delta-like protein 3
T2 sequence (looked up): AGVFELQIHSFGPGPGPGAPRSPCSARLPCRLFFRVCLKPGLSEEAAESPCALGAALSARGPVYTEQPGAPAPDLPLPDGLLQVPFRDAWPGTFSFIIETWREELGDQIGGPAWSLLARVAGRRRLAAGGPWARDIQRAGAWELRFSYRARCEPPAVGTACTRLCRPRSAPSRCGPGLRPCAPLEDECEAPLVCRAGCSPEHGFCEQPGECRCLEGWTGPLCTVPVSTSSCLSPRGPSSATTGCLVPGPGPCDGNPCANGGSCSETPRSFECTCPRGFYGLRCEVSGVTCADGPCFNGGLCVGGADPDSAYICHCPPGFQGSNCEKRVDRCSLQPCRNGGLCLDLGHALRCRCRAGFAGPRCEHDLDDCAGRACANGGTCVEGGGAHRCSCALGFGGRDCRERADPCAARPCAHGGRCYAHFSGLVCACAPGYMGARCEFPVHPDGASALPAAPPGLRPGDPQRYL

[3] = biological target: T1, DLL3 on the surface of DLL3-positive …; test: flow cytometry on NCI-H82 cells
[4] = biological target: T2, human DLL3 protein; test: BLI, scFv-Fc against human DLL3 protein; koff below the instrument detection limit

EC50 [1]: 0.073 µg/mL
Kd [2]: 0.487 nM
koff [2]: 0.000186 s⁻¹
kon [2]: 382000 M⁻¹ s⁻¹
EC50 [3]: 0.064 µg/mL
B3: Ab.79 scFv-human IgG Fc (Fc fusion)
chain: DVVMTQSPLSLPVTLGQPASISCRSSQSLVYNDGNTYLTWFQQWPGQSPRRLIYKVSNRDSGVPDRFSGSGSGTDFTLKISRVEAEDIGVYHCMQGTHWPYTFGQGTKLEIKGGGGSGGGGSGGGGSQVQVQESGPGLVKSSETLSLTCTVSGGSFRSYYWSWIRQPPGKGLDYIGYMYYSGTTNYNPSLTNRVSISVDTSKNQFSLKLNSVTAADTAVYYCAREGTFDIWGQGTVVTVSS
notes: Tested as scFv-human IgG Fc; not shown: human IgG Fc

EC50 [1]: 2.6 µg/mL
Kd [2]: 1.22 nM
koff [2]: 0.000288 s⁻¹
kon [2]: 236000 M⁻¹ s⁻¹
EC50 [3]: 0.38 µg/mL
B7: Ab.76 scFv-human IgG Fc (Fc fusion)
chain: EIVMTQSPATLSVSPGERATLSCRASQSVSSNLAWYRQKPGQAPRLFIYGAYTRATDIPARFSGSGSGTEFTLTISSLQSEDFAVYYCQQYNNWPFTFGPGTKVDIKGGGGSGGGGSGGGGSEVQMVESGGVLVQPGMSLRLSCAASGFTFDDYAMHWVRQPPGKGLEWVSVISWNSGSIGYADSVKGRFTISRDNAKNSLYLQMNSLRAEDTAFYYCAKDLEGGVMDFDYWGQGTLVTVSS
notes: not shown: human IgG Fc

EC50 [1]: 0.077 µg/mL
koff [4]: < 1e-06 s⁻¹
Kd [2]: < 0.005 nM
kon [2]: 193000 M⁻¹ s⁻¹
EC50 [3]: 0.042 µg/mL
B8: Ab.73 scFv-human IgG Fc (Fc fusion)
chain: DVVMTQSPLSLPVTLGQPASISCRSSQSLGYSDGDTYLIWFLQRPGQSPRRLIYKVSNRDSGVPDRFSGSGSGTDFTLKISRVEAEDVGVYYCMQGTHWPYTFGQGTKLEIKGGGGSGGGGSGGGGSQVQVQESGPGLVKPSETLSLTCTVSTGSFSSHYWSWIRQPPGKSLEYIGYIYYTGTTNYNPSLKSRVTISVDTSKNQFSLNVNSVTAADTAVYYCAREGTFDIWGQGTMVTVSS
notes: as for B3

The remaining lines, values behind:

B1: Ab.63 scFv-human IgG Fc (Fc fusion)
chain: QIVLTQSPGTLSLSPGERATLSCRASQSVTRGYLAWYQQKPGQAPRLLFYGASNRATDIPDRFSGSGSGTDFTLIISRLEPEDFAVYYCQQYGISPLTFGGGTKVEIKGGGGSGGGGSGGGGSQVQLHESGPGLVKPSETLSLTCTVSGASISSYYWSWIRQPPGKGLEWIGYIYYSGTTNFNPSLKSRVTISVDTSKNQFSLRLSSVTTADTAVYYCANLALTGFHFDYWGQGTLVTVSS
notes: as for B3
EC50 [1]: 0.011 µg/mL
Kd [2]: 1.41 nM
koff [2]: 0.000597 s⁻¹
kon [2]: 424000 M⁻¹ s⁻¹
EC50 [3]: 0.012 µg/mL

B2: Ab.55 scFv-human IgG Fc (Fc fusion)
chain: EVVMTQSPLSLPVTLGQPASVSCRSSQSLLYSDGNTYLIWFQQRPGQSPRRLLYKLSTRDSGVPDRFSGSGSGTDFTLKISRVEAEDVGIYYCMQVTHWPYTFGQGTKLEIKGGGGSGGGGSGGGGSQVQLRESGPGLVKPSETLSLTCTVSGDSLKNSYWGWIRQPPGKGLEWIGYIYYSGTSSYNPSLESRVTFSADTSKNQFSLKLSSVTAADTAVYYCSREGSFDVWGRGTLVTVSS
notes: as for B3
EC50 [1]: 0.11 µg/mL
Kd [2]: 0.197 nM
koff [2]: 6.31e-05 s⁻¹
kon [2]: 320000 M⁻¹ s⁻¹
EC50 [3]: 0.15 µg/mL

B4: Ab.71 scFv-human IgG Fc (Fc fusion)
chain: DIGMTQSPDSLAVSLGERATINCKSSQNVLPNSNKKHYLSWYQQKPGQPPKLLIYLASTRASGVPDRFSGSGSGTDFTLTISSLQAEDVAVYYCQQYYSSPPEWTFGQGTKVEIKGGGGSGGGGSGGGGSQVQLVESGGGVVQPGRSLRLSCVASGFTFSNCGMHWVRQAPGKGLEWVAIIWYDGNIKYYGDSVKGRFTISRDNSKNTLYLQMNSLRVEDTAVYYCGRHDYGGNSFDYWGQGTLVTVSS
notes: as for B3
EC50 [1]: 0.039 µg/mL
Kd [2]: 0.299 nM
koff [2]: 0.000177 s⁻¹
kon [2]: 591000 M⁻¹ s⁻¹
EC50 [3]: 0.027 µg/mL

B5: AMG757 (anti-DLL3 scFv from Amgen's patent, positive control) scFv-human IgG Fc (Fc fusion)
chain: EIVLTQSPGTLSLSPGERVTLSCRASQRVNNNYLAWYQQRPGQAPRLLIYGASSRATGIPDRFSGSGSGTDFTLTISRLEPEDFAVYYCQQYDRSPLTFGCGTKLEIKGGGGSGGGGSGGGGSQVQLQESGPGLVKPSETLSLTCTVSGGSISSYYWSWIRQPPGKCLEWIGYVYYSGTTNYNPSLKSRVTISVDTSKNQFSLKLSSVTAADTAVYYCASIAVTGFYFDYWGQGTLVTVSS
notes: not shown: human IgG Fc
EC50 [1]: 0.089 µg/mL
Kd [2]: 0.164 nM
koff [2]: 3.03e-05 s⁻¹
kon [2]: 185000 M⁻¹ s⁻¹
EC50 [3]: 0.082 µg/mL

B6: Ab.67 scFv-human IgG Fc (Fc fusion)
chain: DVVVTQSPLSLPVTLGQPASISCRSSQSLVYSDGNTYLNWFQQRPGQSPRRLVYQVSNRDSGVPDRFSGSGSGTDFTLKISGMEAEDAGVYYCMQGTHWPHTFGQGTKLEIKGGGGSGGGGSGGGGSEVHLVESGGGLVQPGGSLKLSCAASGFIFSGSSMHWVRQASGKGLEWIGRIRNKANNYATSYGASVQGRFTMSRDDSKNTAYLQMNSLKAEDTAVYYCTYLSGEFWGQGTLVTVSS
notes: as for B3
EC50 [1]: 0.14 µg/mL
Kd [2]: 0.34 nM
koff [2]: 0.000182 s⁻¹
kon [2]: 534000 M⁻¹ s⁻¹
EC50 [3]: 0.11 µg/mL

Source: patent publication EP4714978A1 (Neukio Biotherapeutics (Shangai ) Co., Ltd., dated 2026)
